According to patent US10538802B2, “Polypeptide substrate for the detection of von Williebrand factor cleaving protease ADAMTS13” (IMMUCOR GTI DIAGNOSTICS, INC., priority 2011, dated 2020):

Target: T1, ADAMTS13 (Homo sapiens, UniProt Q76LX8)
T1 construct: tissue Gen-Probe GTI Diagnostics (ATS-13 kit calibrators, controls and proficiency samples); George King Biomedical Inc. (FACT, A-FACT, B-FACT plasmas) ATS-13; host or cells: plasma
T1 sequence (Q76LX8 75-1427): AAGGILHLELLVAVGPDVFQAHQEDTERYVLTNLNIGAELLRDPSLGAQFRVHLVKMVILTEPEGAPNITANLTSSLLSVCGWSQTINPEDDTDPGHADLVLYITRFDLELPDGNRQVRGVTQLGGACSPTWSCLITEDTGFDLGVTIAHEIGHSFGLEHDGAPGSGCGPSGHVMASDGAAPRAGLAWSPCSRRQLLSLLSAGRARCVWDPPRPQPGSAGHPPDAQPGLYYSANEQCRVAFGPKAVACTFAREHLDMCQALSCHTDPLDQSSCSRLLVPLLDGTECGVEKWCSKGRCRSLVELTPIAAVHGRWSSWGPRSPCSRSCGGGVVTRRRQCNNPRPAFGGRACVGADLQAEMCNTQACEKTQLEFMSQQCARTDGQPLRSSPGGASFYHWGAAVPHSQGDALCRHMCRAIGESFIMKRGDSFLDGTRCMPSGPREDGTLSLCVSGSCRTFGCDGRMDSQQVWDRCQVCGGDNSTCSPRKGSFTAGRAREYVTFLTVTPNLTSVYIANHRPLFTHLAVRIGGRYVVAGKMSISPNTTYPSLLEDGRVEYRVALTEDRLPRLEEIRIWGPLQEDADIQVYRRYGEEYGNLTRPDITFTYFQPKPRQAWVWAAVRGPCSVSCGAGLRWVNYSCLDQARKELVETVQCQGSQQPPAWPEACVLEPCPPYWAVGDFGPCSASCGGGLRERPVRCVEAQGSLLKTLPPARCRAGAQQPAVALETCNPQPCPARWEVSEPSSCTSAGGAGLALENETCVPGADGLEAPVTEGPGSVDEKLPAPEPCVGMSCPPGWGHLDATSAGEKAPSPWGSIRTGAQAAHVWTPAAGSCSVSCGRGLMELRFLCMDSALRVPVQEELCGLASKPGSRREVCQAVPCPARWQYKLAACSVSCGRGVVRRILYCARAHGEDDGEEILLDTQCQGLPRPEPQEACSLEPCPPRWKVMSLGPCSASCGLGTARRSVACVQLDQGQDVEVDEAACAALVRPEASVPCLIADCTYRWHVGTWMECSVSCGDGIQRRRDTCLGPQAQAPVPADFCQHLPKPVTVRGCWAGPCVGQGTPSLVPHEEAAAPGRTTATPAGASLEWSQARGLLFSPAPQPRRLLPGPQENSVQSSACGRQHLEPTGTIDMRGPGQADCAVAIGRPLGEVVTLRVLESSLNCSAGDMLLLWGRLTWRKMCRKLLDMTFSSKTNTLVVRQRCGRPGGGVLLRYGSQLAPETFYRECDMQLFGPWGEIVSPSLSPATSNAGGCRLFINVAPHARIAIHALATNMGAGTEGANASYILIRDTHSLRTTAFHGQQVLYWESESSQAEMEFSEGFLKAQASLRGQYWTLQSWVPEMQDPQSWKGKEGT
Test: ADAMTS13 activity assay with fluorogenic (FRET) polypeptide substrate and diluted plasma samples
Type: biochemical
Method: The procedure in this example was performed substantially as described in Kokame, K., Y. Nobe, Y. Kokubo, A. Okayama, and T. Miyata. 2005. FRETS-VWF73, a first fluorogenic substrate for ADAMTS13 assay. Br. J. Haematol. 129:93-100, but using SEQ ID NO: 1 in place of the 73 amino acid substrate described therein. The FRETS-VWF73 substrate solution was dissolved in 25% dimethyl sulphoxide/water to prepare the 100 microM stock solution. The GTI FRET4 SEQ ID NO: 1 was dissolved in 100% DMSO. Both substrates were diluted to equal concentrations using ATS-13 substrate buffer (Gen-Probe GT1 Diagnostics, Inc., U.S.A., Cat#ATS-13).
Plasma samples were diluted according to the ATS-13 Direction Insert using ATS-13 specimen diluent (Gen-Probe GTI Diagnostics, Inc., U.S.A., Cat# ATS-13). The diluted plasma samples were mixed with the diluted substrate and the fluorescence was read at 0, 5, 10, 15, 20, 30, 45 minutes using a Biotek FLX800 at the appropriate excitation and emission wavelengths for each substrate.
The fluorophore-quencher pair in the SEQ ID NO: 1 polypeptide substrate is FAM-5/TQ 2^Tm (Ex 485±20; Em 528±20; AAT Bioquest, Inc. Sunnyvale, Calif. U.S.A.). The fluorophore and quencher pair of FRETS-VWF73 (Nma/Dnp) described in Kokame has been substituted with FAM-5 and TQ_2 respectively in GTI_FRET4 SEQ ID NO: 1. Furthermore, in the SEQ ID NO: 1 polypeptide the position of the fluorophore (FAM-5) and quencher (TQ_2) has been swapped relative to the position of the fluorophore and quencher of the FRETS-VWF73 construct. Therefore, for GTI_FRET4 SEQ ID NO: 1, attachment of the fluorophore (FAM-5) occurs by substituting asparagine with cystine at position 15. The quencher (TQ_2) was attached by substituting glutamine with lysine at position 4 (FIG. 2 and Table 4).
For this experiment, substrate concentration and fluorescence reader settings determined on the previous experiment are used. The specimens tested (listed in Table 3), include a panel of proficiency samples prepared for use with ATS-13 (Gen-Probe GTI Diagnostics, Inc., U.S.A., Cat# ATS-13) which included samples with normal or deficient ADAMTS13 activity levels. In addition, six Factor Assay ConTrol plasma were used (2 FACT, 2 A-FACT and 2 B-FACT, from George King Biomedical Inc., Kansas, USA). The assays for the SEQ ID NO: 1 substrate and for the prior art FRETS-VWF73 assay were performed generally as according to the procedure described in Example 1. Substrate is prepared according to the conditions used for initial testing of the substrate, which prepared the molar amount of SEQ ID NO: 1 polypeptide substrate used in the assay to be equivalent to the molar amount of FRETS-VWF73 used in the prior art. The […] assays were read at 0, 5, 10, 15, 20, 30, 45 minutes.
Testing of substrate for cleavability by ADAMTS13 is determined as is generally described in Example 1. […]

DREKAPNLVYMVTGCPASDEIKRLPGDIQVVPIEVIGWPNAPILIQDEETLPREAPDLVLQR [GTI_FRET4]
% Normal ADAMTS13 Values Calculated Using GTI_FRET4 Substrate (sample Calibrator D, incubation 15 Minutes): 58 % Normal | % Normal ADAMTS13 Values Calculated Using GTI_FRET4 Substrate (sample Calibrator D, incubation 30 Minutes): 59 % Normal | % Normal ADAMTS13 Values Calculated Using GTI_FRET4 Substrate (sample Calibrator D, incubation 45 Minutes): 59 % Normal | % Normal ADAMTS13 Values Calculated Using GTI_FRET4 Substrate (sample Calibrator D, incubation 60 Minutes): 60 % Normal | % Normal ADAMTS13 Values Calculated Using GTI_FRET4 Substrate (sample Calibrator D, incubation 75 Minutes): 61 % Normal | % Normal ADAMTS13 Values Calculated Using GTI_FRET4 Substrate (sample Calibrator D, incubation 90 Minutes): 62 % Normal | Increase in Fluorescence Values (X minute - 0 minute Reading) (sample Calibrator E, 15 min): 18,718 RFU | Increase in Fluorescence Values (X minute - 0 minute Reading) (sample Calibrator E, 30 min): 35,085 RFU | Increase in Fluorescence Values (X minute - 0 minute Reading) (sample Calibrator E, 45 min): 49,418 RFU | Increase in Fluorescence Values (X minute - 0 minute Reading) (sample Calibrator E, 60 min): 61,068 RFU | Increase in Fluorescence Values (X minute - 0 minute Reading) (sample Calibrator E, 75 min): 70,603 RFU | Increase in Fluorescence Values (X minute - 0 minute Reading) (sample Calibrator E, 90 min): 82,999 RFU | % Normal ADAMTS13 Values Calculated Using GTI_FRET4 Substrate (sample Calibrator E, incubation 15 Minutes): 101 % Normal | % Normal ADAMTS13 Values Calculated Using GTI_FRET4 Substrate (sample Calibrator E, incubation 30 Minutes): 101 % Normal | % Normal ADAMTS13 Values Calculated Using GTI_FRET4 Substrate (sample Calibrator E, incubation 45 Minutes): 100 % Normal | % Normal ADAMTS13 Values Calculated Using GTI_FRET4 Substrate (sample Calibrator E, incubation 60 Minutes): 100 % Normal | % Normal ADAMTS13 Values Calculated Using GTI_FRET4 Substrate (sample Calibrator E, incubation 75 Minutes): 98 % Normal | % Normal ADAMTS13 Values Calculated Using GTI_FRET4 Substrate (sample Calibrator E, incubation 90 Minutes): 98 % Normal | Increase in Fluorescence Values (X minute - 0 minute Reading) (sample MON110707, 15 min): 17,881 RFU | Increase in Fluorescence Values (X minute - 0 minute Reading) (sample MON110707, 30 min): 33,432 RFU | Increase in Fluorescence Values (X minute - 0 minute Reading) (sample MON110707, 45 min): 46,848 RFU | Increase in Fluorescence Values (X minute - 0 minute Reading) (sample MON110707, 60 min): 58,747 RFU | Increase in Fluorescence Values (X minute - 0 minute Reading) (sample MON110707, 75 min): 68,370 RFU | Increase in Fluorescence Values (X minute - 0 minute Reading) (sample MON110707, 90 min): 78,371 RFU | % Normal ADAMTS13 Values Calculated Using GTI_FRET4 Substrate (sample MON110707, incubation 15 Minutes): 97 % Normal | % Normal ADAMTS13 Values Calculated Using GTI_FRET4 Substrate (sample MON110707, incubation 30 Minutes): 96 % Normal | % Normal ADAMTS13 Values Calculated Using GTI_FRET4 Substrate (sample MON110707, incubation 45 Minutes): 95 % Normal | % Normal ADAMTS13 Values Calculated Using GTI_FRET4 Substrate (sample MON110707, incubation 60 Minutes): 96 % Normal | % Normal ADAMTS13 Values Calculated Using GTI_FRET4 Substrate (sample MON110707, incubation 75 Minutes): 95 % Normal | % Normal ADAMTS13 Values Calculated Using GTI_FRET4 Substrate (sample MON110707, incubation 90 Minutes): 92 % Normal | Increase in Fluorescence Values (X minute - 0 minute Reading) (sample Positive Control High, 15 min): 9,146 RFU | Increase in Fluorescence Values (X minute - 0 minute Reading) (sample Positive Control High, 30 min): 17,281 RFU | Increase in Fluorescence Values (X minute - 0 minute Reading) (sample Positive Control High, 45 min): 24,859 RFU | Increase in Fluorescence Values (X minute - 0 minute Reading) (sample Positive Control High, 60 min): 31,857 RFU | Increase in Fluorescence Values (X minute - 0 minute Reading) (sample Positive Control High, 75 min): 39,838 RFU | Increase in Fluorescence Values (X minute - 0 minute Reading) (sample Positive Control High, 90 min): 47,473 RFU | % Normal ADAMTS13 Values Calculated Using GTI_FRET4 Substrate (sample Positive Control High, incubation 15 Minutes): 48 % Normal | % Normal ADAMTS13 Values Calculated Using GTI_FRET4 Substrate (sample Positive Control High, incubation 30 Minutes): 49 % Normal | % Normal ADAMTS13 Values Calculated Using GTI_FRET4 Substrate (sample Positive Control High, incubation 45 Minutes): 50 % Normal
